Test results published in article PMC9695642, “Conservation of Importin α Function in Apicomplexans: Ivermectin and GW5074 Target Plasmodium falciparum Importin α and Inhibit Parasite Growth in Culture” (International Journal of Molecular Sciences, 2022).

Key:
[1] = target: His-tagged GCN5-NLS-GFP (NLS of T. gondii histone acetyltransferase GCN5 fused to GFP) (Toxoplasma gondii); experiment: AlphaScreen or HTRF; biotinylated IMPαs titrated against His-tagged NLS-GFPs (30 nM); apparent dissociation constant
[2] = target: His-tagged TGS1-NLS-GFP (NLS of P. falciparum trimethylguanosine synthase fused to GFP) (Plasmodium falciparum); experiment: as above
[3] = target: His-tagged Toxoplasma gondii importin α (Toxoplasma gondii); experiment: AlphaScreen or HTRF; His-tagged IMPαs (30 nM) titrated with increasing concentrations of biotinylated GST-MmIMPβ1 (legend: 5 nM)
[4] = target: His-tagged Mus musculus importin α (Mus musculus) (UniProt P52293); experiment: as above

“Toxoplasma gondii importin α, biotinylated GST fusion protein (natural protein)” showed a Kd [1] of 5 nM and a Kd [2] of 1.9 nM.

In the case of “biotinylated GST-MmIMPβ1 (Mus musculus importin β1) (from UniProt P70168 1-876)”, the Kd [3] is reported as 1.2 nM.

“biotinylated GST-MmIMPβ1 (Mus musculus importin β1) (from UniProt P70168 1-876) (natural protein)” showed a Kd [4] of 2.5 nM.

“mammalian IMPα/β1 heterodimer from M. musculus (from UniProt P52293 1-529; P70168 1-876) (complex)” was tested, and the Kd [1] was 3.2 nM and the Kd [2] was 2.5 nM.
